{"source": "patent US20110009597A1", "about": "“RECOMBINANT GANODERMA LUCIDIUM IMMUNOMODULATORY PROTEIN (rLZ-8) AND USES THEREOF” (priority 2008, published 2011)", "molecules": {"B1": {"name": "rLZ-8: Recombinant Ganoderma Lucidum Immune Regulatory Protein expressed in Pichia pastoris (protein, UniProt P14945 2-111, looked up)", "Immunomodulatory protein Ling …": "SDTALIFRLAWDVKKLSFDYTPNWGRGNPNNFIDTVTFPKVLTDKAYTYRVAVSGRNLGVKPSYAVESDGSQKVNFLEYNSGYGIADTNTIQVFVVDPDTNNDFIIAQWN"}}, "key": {"WBC [1]": {"test_system": "WBC", "assay": "Cyclophosphamide low-leucocyte rat model, WBC", "type": "in vivo, rats", "set-up": "unit not given here", "description": "rLZ-8 preparation of sterile saline. Divide them into 20 μg·kg^−1, 10 μg·kg^−1, 5 μg·kg^−1, 2.5 μg·kg^−1, 1.25 μg·kg^−1, 0.625 μg·kg^−1, 0.31 μg·kg^−1 dose groups.\nGenlei™ Scimax™ [Recombinant human granulocyte colony-stimulating factor injection (rhG-CSF)], production lot: 20060403; 75 μg/vial is prepared with sterile normal saline into the preparation of 9.45 μg·ml^−1, 0.1 ml/vial.\nCyclophosphamide (CP), the production lot number 050216; 200 mg/vial is prepared with sterile normal saline into the preparation of 20 mg·ml^−1, 0.1 ml/vial, namely, 49 mg·kg^−1.\nNormal control group, protein low-dose group, protein medium-dose group, protein high-dose group, positive control group (Genlei™ Scimax™)\n(§1) Excluding the normal control group (given same normal saline), each group of rats were given tail vein injection of cyclophosphamide, 20 mg·ml^−1, 0.1 ml/vial, for 3 consecutive days. On 3rd day, rat tail venous blood sampling, sent to Jilin University First Hospital laboratory, cell analyze the number of WBC. After successful modeling, they were given to the above groups respective dose of rLZ-8 and positive drugs (Genlei™ Scimax™) treatment, the normal control group and CP groups were given same normal saline, on the 3rd, 7th and 14th day of the treatment to draw venous blood from rats tail respectively, sent to Jilin University First Hospital testing the numbers of WBC. Compare WBC changes before and after the treatment for analysis of drug efficacy."}, "[2]": {"test_system": "human red blood cells (A, B, O and AB blood type)", "assay": "Red blood cell agglutination, human", "type": "cell-based", "description": "A, B, O and AB blood type, from the healthy volunteers 2 ml respectively, SRBC (sheep red cell) 2 ml. Centrifuge the above RBC 1200 g·min^−1 for 10 min, clears the supernatant and wash with 5 ml PBS, repeat the above operation 3-5 times, and then uses 0.01 mol/L PBS suspension preparation of 1.5%. Prepare rLZ-8 with normal saline to final concentrations of 50 μg·ml^−1, 25 μg·ml^−1, 12.5 μg·ml^−1, 6.25 μg·ml^−1, 1.56 μg·ml^−1, 0.78 μg·ml^−1, 0.39 μg·ml^−1, 0.20 μg·ml^−1, 0.10 μg·ml^−1, 0.05 μg·ml^−1, 0.03 μg·ml^−1. Plant agglutinin (PHA) preparation Ibid.\nDivide experiment subjects into rLZ-8 concentration groups, positive drug control, and normal control group.\nOn 96-orifice Hemagglutination board, we add A-type 1.5%, erythrocyte 25 μl/hole, and then add 0.2% gelatin, 75 μl/hole. Drug groups are added different concentrations of rLZ-8, till the final concentration as above-noted; positive drug control group PHA 25 μl/hole; normal control group PBS25μl/hole. 6 parallel control groups in each group. Shaking for 30 s under normal room temperature, 37° C. incubation, observe the subjects 1 h later. For B-type, AB-type, O-type, the same experiment methods are as SRBC (sheep red cell) above."}, "WBC [3]": {"test_system": "WBC", "assay": "Cyclophosphamide low-leucocyte mice model, WBC", "type": "in vivo", "set-up": "unit not given here", "description": "rLZ-8 preparation of sterile saline. Divide them into 5 μg·kg^−1, 2.5 μg√kg^−1, 1.25 μg·kg^−1, 0.62 μg·kg^−1 dose groups.\nGenlei™ Scimax™ [Recombinant human granulocyte colony-stimulating factor injection (rhG-CSF)], production lot: 20060403; 75 μg/vial is prepared with sterile normal saline into the preparation of 3.2 μg·kg^−1, 0.2 ml/vial.\nCyclophosphamide (CP) for injection (the production lot number 050216; 200 mg/vial) is prepared with sterile normal saline into the preparation of 12.5 mg·kg^−1, 0.2 ml/vial.\nNormal control group, several protein dose groups, positive control group (Genlei™ Scimax™).\nas §1, with “mice” for “rats”, “[…], 0.2” for “20 mg·ml^−1, 0.1”"}, "WBC [4]": {"test_system": "WBC", "assay": "Treatment of radiation leucopenia model of mice, WBC", "type": "in vivo", "set-up": "unit not given here", "conditions": "7.5 Gy γ-ray", "description": "rLZ-8 preparation of sterile saline. Divide them into 5 ∞g·kg^−1, 2.5 μg·kg^−1, 1.25 μg·kg^−1, 0.62 μg·kg^−1 dose groups. 0.2 ml/vial.\nGenlei™ Scimax™ [Recombinant human granulocyte colony-stimulating factor injection (rhG-CSF)], production lot: 20060403; 150m/vial is prepared with sterile normal saline into the preparation of 3.2 μg·kg^−1, 0.2 ml/vial.\nThe mice were irradiated by 7.5 Gy γ-ray (180 mV, 15 mA) and then divided into seven groups (n=10): (A) negative control; (B) 5 μg·kg−1 dose; (C) 2.5 μg·kg−1 dose; (D) 1.25 μg·kg−1 dose; (E) 0.62 μg·kg−1 dose; (F) positive control (Genlei™ Scimax™); (G) model group. Together with modeling, mice in each group were administered with Genlei™ Scimax™ and rLZ-8 for 9 days, drew blood from tail, tested the number of WBC, weight spleen, calculated index of spleen."}}, "data": [{"molecule": "B1", "values": [{"measurement": "WBC, 3rdday of medication", "setting": "WBC [1]; rLZ-8 0.31 μg·kg−1", "result": "1.9 ± 0.17"}, {"measurement": "WBC, 7thday of medication", "setting": "WBC [1]; rLZ-8 0.31 μg·kg−1", "result": "13.5 ± 0.13"}, {"measurement": "WBC, 14thday of medication", "setting": "WBC [1]; rLZ-8 0.31 μg·kg−1", "result": "11.0 ± 0.31"}, {"measurement": "WBC, 3rdday of medication", "setting": "WBC [1]; rLZ-8 0.62 μg·kg−1", "result": "5.2 ± 0.14"}, {"measurement": "WBC, 7thday of medication", "setting": "WBC [1]; rLZ-8 0.62 μg·kg−1", "result": "12.8 ± 0.74"}, {"measurement": "WBC, 14thday of medication", "setting": "WBC [1]; rLZ-8 0.62 μg·kg−1", "result": "12.1 ± 0.24"}, {"measurement": "WBC, 3rdday of medication", "setting": "WBC [1]; rLZ-8 1.25 μg·kg−1", "result": "2.8 ± 0.12"}, {"measurement": "WBC, 7thday of medication", "setting": "WBC [1]; rLZ-8 1.25 μg·kg−1", "result": "11.0 ± 0.47"}, {"measurement": "WBC, 14thday of medication", "setting": "WBC [1]; rLZ-8 1.25 μg·kg−1", "result": "10.3 ± 0.45"}, {"measurement": "WBC, 3rdday of medication", "setting": "WBC [1]; rLZ-8 2.5 μg·kg−1", "result": "1.7 ± 0.18"}, {"measurement": "WBC, 7thday of medication", "setting": "WBC [1]; rLZ-8 2.5 μg·kg−1", "result": "12.8 ± 0.11"}, {"measurement": "WBC, 14thday of medication", "setting": "WBC [1]; rLZ-8 2.5 μg·kg−1", "result": "10.6 ± 0.29"}, {"measurement": "WBC, 3rdday of medication", "setting": "WBC [1]; rLZ-8 5 μg·kg−1", "result": "2.6 ± 0.64"}, {"measurement": "WBC, 7thday of medication", "setting": "WBC [1]; rLZ-8 5 μg·kg−1", "result": "17.6 ± 0.23"}, {"measurement": "WBC, 14thday of medication", "setting": "WBC [1]; rLZ-8 5 μg·kg−1", "result": "11.2 ± 0.26"}, {"measurement": "WBC, 3rdday of medication", "setting": "WBC [1]; rLZ-8 10 μg·kg−1", "result": "1.6 ± 0.71"}, {"measurement": "WBC, 7thday of medication", "setting": "WBC [1]; rLZ-8 10 μg·kg−1", "result": "15.8 ± 0.33"}, {"measurement": "WBC, 14thday of medication", "setting": "WBC [1]; rLZ-8 10 μg·kg−1", "result": "10.9 ± 0.21"}, {"measurement": "WBC, 3rdday of medication", "setting": "WBC [1]; rLZ-8 20 μg·kg−1", "result": "1.6 ± 0.33"}, {"measurement": "WBC, 7thday of medication", "setting": "WBC [1]; rLZ-8 20 μg·kg−1", "result": "15.8 ± 0.13"}, {"measurement": "WBC, 14thday of medication", "setting": "WBC [1]; rLZ-8 20 μg·kg−1", "result": "9.8 ± 0.19"}, {"measurement": "agglutination of four types of human red blood cells (in words)", "setting": "[2]", "result": "not agglutinative"}, {"measurement": "WBC, 3rdday of medication", "setting": "WBC [3]; rLZ-8 0.62 μg·kg−1", "result": "6.4 ± 0.41"}, {"measurement": "WBC, 7thday of medication", "setting": "WBC [3]; rLZ-8 0.62 μg·kg−1", "result": "27.2 ± 0.10"}, {"measurement": "WBC, 14thday of medication", "setting": "WBC [3]; rLZ-8 0.62 μg·kg−1", "result": "13.9 ± 0.17"}, {"measurement": "WBC, 3rdday of medication", "setting": "WBC [3]; rLZ-8 1.25 μg·kg−1", "result": "8.1 ± 0.17"}, {"measurement": "WBC, 7thday of medication", "setting": "WBC [3]; rLZ-8 1.25 μg·kg−1", "result": "19.7 ± 0.17"}, {"measurement": "WBC, 14thday of medication", "setting": "WBC [3]; rLZ-8 1.25 μg·kg−1", "result": "13.9 ± 0.14"}, {"measurement": "WBC, 3rdday of medication", "setting": "WBC [3]; rLZ-8 2.5 μg·kg−1", "result": "6.6 ± 0.77"}, {"measurement": "WBC, 7thday of medication", "setting": "WBC [3]; rLZ-8 2.5 μg·kg−1", "result": "22.8 ± 0.15"}, {"measurement": "WBC, 14thday of medication", "setting": "WBC [3]; rLZ-8 2.5 μg·kg−1", "result": "15.2 ± 0.11"}, {"measurement": "WBC, 3rdday of medication", "setting": "WBC [3]; rLZ-8 5 μg·kg−1", "result": "5.0 ± 0.12"}, {"measurement": "WBC, 7thday of medication", "setting": "WBC [3]; rLZ-8 5 μg·kg−1", "result": "20.3 ± 0.11"}, {"measurement": "WBC, 14thday of medication", "setting": "WBC [3]; rLZ-8 5 μg·kg−1", "result": "14.3 ± 0.21"}, {"measurement": "WBC, 5th day", "setting": "WBC [4]; rLZ-8 0.62 μg·kg^−1", "result": "0.73 ± 0.43"}, {"measurement": "WBC, 7th day", "setting": "WBC [4]; rLZ-8 0.62 μg·kg^−1", "result": "0.26 ± 0.43"}, {"measurement": "WBC, 9th day", "setting": "WBC [4]; rLZ-8 0.62 μg·kg^−1", "result": "0.64 ± 0.01"}, {"measurement": "WBC, 5th day", "setting": "WBC [4]; rLZ-8 1.25 μg·kg^−1", "result": "0.82 ± 0.45"}, {"measurement": "WBC, 7th day", "setting": "WBC [4]; rLZ-8 1.25 μg·kg^−1", "result": "0.65 ± 0.45"}, {"measurement": "WBC, 9th day", "setting": "WBC [4]; rLZ-8 1.25 μg·kg^−1", "result": "0.70 ± 0.12"}, {"measurement": "WBC, 5th day", "setting": "WBC [4]; rLZ-8 2.50 μg·kg^−1", "result": "0.69 ± 0.54"}, {"measurement": "WBC, 7th day", "setting": "WBC [4]; rLZ-8 2.50 μg·kg^−1", "result": "0.56 ± 0.54"}, {"measurement": "WBC, 9th day", "setting": "WBC [4]; rLZ-8 2.50 μg·kg^−1", "result": "0.54 ± 0.13"}, {"measurement": "WBC, 5th day", "setting": "WBC [4]; rLZ-8 5 μg·kg^−1", "result": "0.84 ± 0.32"}, {"measurement": "WBC, 7th day", "setting": "WBC [4]; rLZ-8 5 μg·kg^−1", "result": "0.31 ± 0.32"}, {"measurement": "WBC, 9th day", "setting": "WBC [4]; rLZ-8 5 μg·kg^−1", "result": "0.90 ± 0.14"}]}]}
